Measured values from the RNAGym collection of RNA variant scans (doi:10.1073/pnas.2313332121).

B1: TPR t1 (parent)
chain: GACCAAUCUGCCCUCAGAGCUCGAGAACAUCUUCGGAUGCAGAGGAGGCAGGCUUCGGUGGCGCGAUAGCGCCAACGUCCUCAACCUCCAAUGCAUCCCACCACAUGAUGAUGCCUGAAGAGCCUUGGUUUUUUG

Variants of: B1
Test: polymerase ribozyme fitness, log enrichment relative to wild type (log ratio); higher = more active; in vitro selection for triplet polymerase activity
Method in brief: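 A heterodimeric triplet polymerase ribozyme had each of its subunits mutagenized by PCR into a library, which was transcribed. One round of in vitro selection, done in triplicate, annealed each library with a biotinylated primer, its partner subunit and triplets, then incubated it frozen at −7 °C before gel excision of extended constructs, streptavidin-bead capture and RT-PCR. Fitness is the logarithm of genotype enrichment relative to wild-type enrichment, based on Illumina sequencing of inputs and outputs and inverse-variance-weighted replicate averages. A base-2 logarithm is used, and genotypes were kept only with ≥10 input reads and ≥1 read per output.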

Variant	polymerase ribozyme fitness (log ratio)
GACCAAUCUGCCCUCAGAGCUAGAGAACAUCUUCGGAUGCAGAGGAGGCAGGCUUCGGUGGCGCGAUAGCGCCAACGUCCUCAACCUCCAAUGCAUCCCACCACAUGAUGAUGCCUGAAUAGCCUUGGUUUUUUG	-4.24
GACCAAUCUGCCCUCAGAGCUAGAGAACGUCUUCGGAUGCAGAGGAGGCAGGCUUCGGUGGCGCGAUAGCGCCAACGUCCUCAACCUCCAAUGCAUCCCACCACAUGAUGAUGCCUGAAGAGCCUUGGUUUUUUG	-4.8
GACCAAUCUGCCCUCAGAGCUAGAGAACAUCUUCGGAUGCAGAGGAGGCAGGAUUCGGUGGCGCGAUAGCGCCAACGUCCUCAACCUCCAAUGUAUCCCACCACAUGAUUAUGCCUGAAGAGCCUUGGUUUUUUG	-6.9
GACCAAUCUGCCCUCAGAGCUAGAGAACAUCUUCGGAUGCAGAGGAGGCAGGAUUCGGUGGCGCGAUAGCGCCAACGUCCUCAACCUCCAAUGCAUCCCACCACAUGAUCAUGCCUGAAGAGCCUUGGUUAUUUG	-5.4
GACCAAUCUGCCCUCAGAGCUGGAGAACAUCUUCGGCUGCAGAGGAGGCAGGCUUCGGUGGCGCGAUAGCGCCAACGUCCUCAACCUCCAACGCAUCCCACCACAUGAUGAUGCCUGAACAGCCUUGGUUUUUUG	-4.95
GACCAAUCUGCCCUCAGAGCUAGAGAACAUCUUCGGAUGCAGAGGAGGCAGGCUUCGGUGGCGCGAUAGCGCCAACGUCCCCAACCUCCAAUGCAUCCCACCACAUGAUGAUGCCUGAAGAGCCUUGGUUUUUUG	-5.67
GACCAAUCUGCCCUCAGAGCUGGAGAAUAUCUUCGGUUGCAGAGGAGACAGGCUUCGGUGGCGCGAUAGCACCAACGUCCUCAACCUCCAAUGCAUCCCACCACAUGAUCAUGCCUGAAGAGCCUUGGUUUUUUG	-5.6
GACCAAUCUGCCCUCAGAGCUAGAGAACAUCUUCGGAUGCAGAGGAGGCAGGCUUCGGUGGCGCGAUAGCGCCAACGUCCUCAACCUCCAAUGCAGCCCACCACAUGAUGAUGCCUGAAGAGCCUUGGUUUUUUG	-4.9
GACCAAUCUGCCCUCAGAGCUGGAGAACCUCUUCGGAUGCAGAGGAGGCAGGCUUCGGUGGCGCGAUAGCGCCAACGUCCUCAACCUCCAAUGCAUCCCACCACAUGAUUAUGCCUGAAGAGCCUUGGUUUUUUG	-4.24
GACCAAUCUGCCCUCAGAGCUGGAGAACAUCUUCGGAUGCAGAGGAGGCAGGCUUAGGUGGCGCGAUAGCGCUAACGUCCUCAACCUCCAAUGCAUCCCACCACAUGAUGAUGCCUGAAGAGCCUUGGUUUUUUG	-4.49
GACCAAUCUGCCCUCAGAGCUAGAGAACAUCUUCGGAUGCAGAGGAGGCAGGCUUCGGUGGCGCGAUAGCGCCAAUGUCCUCAACCUCCAAUGCAUCCCACCACAUGAUGAUGCCUGAAGAGCCUUGGUUUUUUG	-4.72
GACCAAUCUGCCCUCAGAGCUGGAGGACAUCUUCGGAUGCAGAGGAGGCAGGCUUGGGUGGCGCGAUAGCGCCAGCGUCCUCAACCUCCAAUGCAUCCCACCACAUGAUGAUGCCUGAAGAGCCUUGGUUUUUUG	-5.33
GACCAAUCUGCCCUCAGAGCUAGAGACCAUCUUCGGAUGCAGAGGAGGCAGGCUUUGGUGGCGCGAUAGCGCCAACGUCCUCAACCUCCAAUGCAUCCCACCACAUGAUGAUGACUGAAGAGCCAUGGUUUUUUG	-4.58
GACCAAUCUGCCCUCAGAGCUAGAGAACAUCUUCGGAUGCAGACGAGGCAGGCUUCGGUGGCGCGAUAGCGCCAACGUCCUCAACCUCCAAUGCAUCCCACCACAUGAUGAUGCCUGAAGAGCCUUGGUUUUUUG	-4.8
GACCAAUCUGCCCUCAGAGCUAGAGAACAUCUUCGGAUGCAGAGGAGGCAGGCUUCGGUGGCGCGAUAGCUCCAACGUCCUCAACCUCCAAUGCAUCCCACCACAUGAUGAUGCCUGAAGAGCCUUGGUUUUUUG	-5.61
GACCAAUCUGCCCUCAGAGCUAGAGAACAUCUUCGGAUGCAGAGGAGGCAGGCUUCGGUGACGCGAUAGCGCCAACGUCCUCGACCUCCAAUGCAACCCACCACAUGAUGAUGACUGAAGAGCCUUGGUUUUUUG	-5.1
GACCAAUCUGCCCUCAGAGCUAGAGAACAUCUUCGGAUGCAGAGGAGGCAGGCUUCGGUGGCGCGAUAGCGCCAACGUCCUCAACCUCCAAUGCAUCCCACCACAUGAUGAUGCCUGAAUAGCCUUGGUUAUUUG	-4.18
GACCAAUCUGCCCUCAGAGCUAGAGAGCAUCUUCGGAUGCAGAGGAGGCAGGCUUCGGUGGCGCGAUAGCGCCAACGUCCUCAAGCUCCAAUGCAUCCCCUCACAUGAUGAUGCCUGAACAGCCUUAGUUUUUUG	-6.82
GACCAAUCUGCCCUCAGAGCUAGAGAACAUCUUCGGAUGCAGAGGAGGCAGGCUUCGGUGGCGCGAUAGCGCCAACGUCCUCAACCUCCAAUGCAUCCCACCACAUGAUGAAGGCUGAAGAGCCUUGGUUUUUUG	-1.84
GACCAAUCUGCCCUCAGAGCUAGAGAACAUCUUCGGAUGCAGAGGAGGCAGGCUUCGGUGUCGCGAUAGCGCCAACGUCCUCAACCUCCAAUGCAUCCCACCACAUGAUGAUGCCUGAAGAGCCUUGGUUUUUUG	-5.05
GACCAAUCUGCCCUCAGAGCUGGAGAACAUCUUCGGAUGCAGUGGAGGCAGGCUUCGGUGGCGCGAUAGCGCCAACGUCCUCAACCUCCAAUGCAUCCCACCACAUGAUGAUGCCUGAAGAGCCUUGGUUUUUUG	-3.99

Variant	polymerase ribozyme fitness (log ratio)
GACCAAUCUGCCCUCAGAGCUGGAGAACAUCUUCGGAUGCAGAGGAGGCAGGCUUCGGUGGCGCGAUAGCGCCAACGUCCUCAACCUCCUAUGCAUCCCACCACAAGAUGUUGCCUGAAGAGCCUUGGUUUUUUG	-3.25
GACCAAUCUGCCCUCAGAGCUGGAGAACAUCUUCGGAUGCAGAGGAGGCAGGCUUCGGUGGCGCGAUAGCGCCAACGUCCUCCACCUCCAAUGCAUCCCACCACAUGAUGAUGCCUGAAGAGCCUUGGUUUUUUG	-3.33
GACCAAUCUGCCCUCAGAGCUAGAGAACAUCUUCGGAUGCUGAGGAGGCAGGCUUCGGUGGCGCGAUAGCGCCAACGUCCUCAACCUCCUAUGCAUCCCACCACAUGAUGAUGCCUGAAGGGCCUUGGUUUUUUG	-5.71
GACCAAUCUGCCCUCAGAGCUGGAGAACAUCUUCGGAUGCUGAGGAGGCAGGCUUCGGUGGCGCGAUAGCGCCAACGUCCUCAACCUCCAAUUCAUCCCACCACAUGAUGAUGCCUGAAGAGCCUUGGUUUUUUG	-5.01
GACCAAUCUGCCCUCAGAGCUAGAGAACAUGUUCGGAUGCAGAGGAGGCAGGCUUCGGUGGCGCGAUAGCUCCAACGUCCUCAACCUCCAACACAUCCCACCACAUGAUGAUGUCUGAAGAGCCUUGGUUUUUUG	-6.77
GACCAAUCUGCCCUCAGAGCUGGAGAUCAUCUUCGGAUGCAGAGGAGGCAGGCUUCGGUGGCGCGAUAGCGCCAACGUCCUCAACCUUCAAUGCAUCCCACCACAUGAUGAUGCCUGAAGUGCCUUGGUUUUUUG	-2.51
GACCAAUCUGCCCUCAGAGCUGGAGAACUUCUUCGGAUGCAGAGGAGGCAGGCUUCGGUGGCGCGAUACCGCCAACGUCCUCAACCUCAAAUGCAUCCCACCACAUGAUUAUGCCUGAAGAGCCUUGGUUUUUUG	-5.19
GACCAAUCUGCCCUCAGAGCUAGAGAACAUCUUCGGAUGCAGAGGAGGCAGGCUUCGGUGGCGCGAUAGCGCAAACGUCCUCAACCUCCAAUGCAUCCCACCACAUGAUGAUGCCUGAAAAGCCUUGGUUUUUUG	-4.58
GACCAAUCUGCCCUCAGAGCUAGAGAACAUCUUCGGAUGCAGAGGAGGCAGGCUUCGGUGGCGCGAUAGCGCCGACGUCCUCAACCUCCAAUGCAUUCCACCACAUGAUGAUGCCUGAAGAGCCUUGGUUUUUUG	-4.56
GACCAAUCUGCCCUCAGAGCUAGAGAACAUCUUCGGAUGCAGAGGAGGCAGACUUCGGUGGCGCGAUAGCGCCAACGUCCUCAACCUCCAAUGCAUCCCACCACAUGAUGAUGCCUGAAGAGCCUUGGUUUUUUG	-4.45
GACCAAUCUGCCCUCAGAGCUAGAGAACAUCUUCGGAUGCAGAGGAGACAGGCUUCUGUGGCGCGAUAGAGCCAACGUCCUCGACCUCCAUUGCAUCCCACCACAUGAUGAUGCAUGAAGAGCCUUGGUUUUUUG	-7.04
GACCAAUCUGCCCUCAGAGCUAGAGAACAUCUUCGGAUGCAUAGGAGGCAGGCUUCGGUGGCGCGAUAGCUCCAACGUCCUCAACCUCCAAUGCAUCCCACCACAUGAUGAUCCCUGAAGAGCCUUGGUUUUUUG	-5.64
GACCAAUCUGCCCUCAGAGCUGGAGAACAUCUUCGGAUGCAGAGGAGGGAGGCUUCGGUGGCGCGAUAGCGCCAACGUCCUCAACCUCCAAUGCAUCCCACCACAUGAUGAUGCCUGAAGAGCCUUGGUUUUUUG	-3.79
GACCAAUCUGCCCUCAGAGCUAGAGAACAUCUUCGGAUGCAGAGGAGGUAGGCUUCGGUGGCGCGAUAGCGCCAACGUCCUCAACCUCCAAUGCAUCCCACCACAUGAUGAUGCCUGAAGAGCCUUGGUUUUUUG	-6.04
GACCAAUCUGCCCUCAGAGCUAGAGAACAUGUUCGGAUGCAGAGGAGGCAGGCUUCGGUGACGCGAUAGCGCCAACGUCCUCAACCUCCAAUGCAUCCCACAACAUGAUGAUGCCUGAAGAGGCUUGGUUUUUUG	-7.56
GACCAAUCUGCCCUCAGAGCUAGAGAACAUCUUCGAAUGCAGAGGAGGCAGGCUUUGGUGGCGCGAUAGCGCCAACGUCCUCAACCUCCAAUGCAUCCCACCACAUGAUGAUGCCUGAAGAGCCUUGGUUUUUUG	-5.8
GACCAAUCUGCCCUCAGAGCUAGAGAACAUCUUGGGAUGCAGAGGAGGCAGGCUUCGGUGGCGCGAUAGCGCCAACGUCCUCAACCUCCAAUGCAUCCCACCACAUGAUGAUGCCUGAAGAGCCUUGGUUUUUUG	-6.64
GACCAAUCUGCCCUCAGAGCUGGAGAACAUCUUCGGAUGCAGAGGAGGCAGGCUUCGGUGGCGCGAUAGCGCCAACGUCCUCAGCCUCCAAUGCAUCCCACCACAUGAUGAUGCCUGAAGAGCCUUGGUUUUUUG	-4.29
GACCAAUCUGCCCUCAGAGCUAGAGAACAUCUUCGGAUGCAGAGGAGGCACGCUUCGGUGGCGCGAUAGCGACAACGUCCUCAACCUCCAAUGCAUCCCACCACAUGAUGAUGCCUGAAGAGCCUUGGUUUUUUG	-6.53
GACCAAUCUGCCCUCAGAGCUGGAGAACAUCUUUGGAUGCAGAGGAGGCAGGCUUCGGUUGCGCGAUAGCGCCAACGUCCUCAACCUCCAAUGAAUUGCACCACAUGAUGAUUCCUGAAGAGCCUUGGUUUUUUG	-6.85
GACCAAUCUGCCCUCAGAGCUAGAGAACAUCUUCGGAUGCAGAGGAGGCAGGCUUCGGUGGCUCGAUAGCGCCAACGUCCUCAACCUCCAAUGCAUCCCAUCACAUGAUGAUGCCUGAAGAGCCUUGGUUUUUUG	-6.16
